Results as given in publication PMC11487272 (Nature Communications, 2024).

How the values were obtained:
[1] = biological target: T1, His-tagged full-length FADD F25Y (UniProt Q13158 1-208, F25Y); assay: pull-down
T1 sequence: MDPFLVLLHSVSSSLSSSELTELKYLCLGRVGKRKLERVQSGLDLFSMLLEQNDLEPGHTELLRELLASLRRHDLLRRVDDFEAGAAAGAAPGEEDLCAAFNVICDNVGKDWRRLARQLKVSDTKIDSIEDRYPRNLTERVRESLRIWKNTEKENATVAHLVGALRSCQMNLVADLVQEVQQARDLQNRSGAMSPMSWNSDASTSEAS

[2] = biological target: the molecule itself; assay: cryo-EM structure
[3] = biological target: full-length Casp-8 F122G/L123G/C360A/D374A/D384A (UniProt Q14790 1-479, F122G | L123G | C360A | D374A | D384A); assay: co-purification
[4] = biological target: wild-type cFLIP^tDED (residues 1-181) (UniProt O15519 1-181); assay: crystal structure

B1: binary CF^H7G-C8^FGLG complex, His-tag removed, SEC-purified (complex)
chain 1: […]
chain 2: MDFSRNLYDIGEQLDSEDLASLKFLSLDYIPQRKQEPIKDALMLFQRLQEKRMLEESNLSFLKELLFRINRLDLLITYLNTRKEEMERELQTPGRAQISAYRVMLYQISEEVSRSELRSFKGGLQEEISKCKLDDDMNLLDIFIEMEKRVILGEGKLDILKRVCAQINKSLLKIINDYEEFSKER
- binding result [1]: binds

B2: His-tagged full-length FADD F25G (natural protein)
chain: MDPFLVLLHSVSSSLSSSELTELKGLCLGRVGKRKLERVQSGLDLFSMLLEQNDLEPGHTELLRELLASLRRHDLLRRVDDFEAGAAAGAAPGEEDLCAAFNVICDNVGKDWRRLARQLKVSDTKIDSIEDRYPRNLTERVRESLRIWKNTEKENATVAHLVGALRSCQMNLVADLVQEVQQARDLQNRSGAMSPMSWNSDASTSEAS
- stoichiometry N [2]: 3 molecules in the complex
- binding result [3]: binds

B3: Casp-8^tDED_FGLG (procaspase-8 tandem DED, residues 1-185, F122G/L123G) (domain or fragment)
chain: MDFSRNLYDIGEQLDSEDLASLKFLSLDYIPQRKQEPIKDALMLFQRLQEKRMLEESNLSFLKELLFRINRLDLLITYLNTRKEEMERELQTPGRAQISAYRVMLYQISEEVSRSELRSFKGGLQEEISKCKLDDDMNLLDIFIEMEKRVILGEGKLDILKRVCAQINKSLLKIINDYEEFSKER
- binding result [4]: binds
